Source: publication PMC11741606 (2025)

Legend:
Assay in all cases: SPR
[1] = target: T1, dAPN-Q746K ectodomain, hFc-tagged (dog (Canis lupus familiaris), UniProt P79143 33-975, Q746K)
T1 sequence: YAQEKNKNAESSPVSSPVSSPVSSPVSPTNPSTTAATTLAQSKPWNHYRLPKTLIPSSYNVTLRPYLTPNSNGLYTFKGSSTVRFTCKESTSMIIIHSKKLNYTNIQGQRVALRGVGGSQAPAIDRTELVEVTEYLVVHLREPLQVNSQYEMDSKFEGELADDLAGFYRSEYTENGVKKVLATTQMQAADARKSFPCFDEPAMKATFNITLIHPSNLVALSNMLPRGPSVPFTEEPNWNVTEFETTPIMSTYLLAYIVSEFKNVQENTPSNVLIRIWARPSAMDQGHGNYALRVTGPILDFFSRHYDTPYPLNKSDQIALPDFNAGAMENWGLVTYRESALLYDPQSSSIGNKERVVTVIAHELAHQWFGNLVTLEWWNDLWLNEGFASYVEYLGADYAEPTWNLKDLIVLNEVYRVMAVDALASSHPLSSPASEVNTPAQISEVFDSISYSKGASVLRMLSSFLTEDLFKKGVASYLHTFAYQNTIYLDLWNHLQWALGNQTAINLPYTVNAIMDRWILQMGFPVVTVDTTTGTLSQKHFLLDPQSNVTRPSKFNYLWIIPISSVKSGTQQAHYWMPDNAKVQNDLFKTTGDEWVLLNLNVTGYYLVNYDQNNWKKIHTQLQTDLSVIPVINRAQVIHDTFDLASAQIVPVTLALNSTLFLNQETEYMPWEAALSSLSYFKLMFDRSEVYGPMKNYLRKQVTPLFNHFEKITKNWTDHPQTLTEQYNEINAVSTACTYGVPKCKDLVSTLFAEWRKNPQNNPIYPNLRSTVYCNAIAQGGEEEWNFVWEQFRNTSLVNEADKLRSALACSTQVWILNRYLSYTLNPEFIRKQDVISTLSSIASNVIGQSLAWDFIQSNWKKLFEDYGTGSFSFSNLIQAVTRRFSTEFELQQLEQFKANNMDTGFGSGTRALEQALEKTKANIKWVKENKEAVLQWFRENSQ

[2] = target: T2, dAPN-D750E ectodomain, hFc-tagged (dog (Canis lupus familiaris), UniProt P79143 33-975, D750E)
T2 sequence: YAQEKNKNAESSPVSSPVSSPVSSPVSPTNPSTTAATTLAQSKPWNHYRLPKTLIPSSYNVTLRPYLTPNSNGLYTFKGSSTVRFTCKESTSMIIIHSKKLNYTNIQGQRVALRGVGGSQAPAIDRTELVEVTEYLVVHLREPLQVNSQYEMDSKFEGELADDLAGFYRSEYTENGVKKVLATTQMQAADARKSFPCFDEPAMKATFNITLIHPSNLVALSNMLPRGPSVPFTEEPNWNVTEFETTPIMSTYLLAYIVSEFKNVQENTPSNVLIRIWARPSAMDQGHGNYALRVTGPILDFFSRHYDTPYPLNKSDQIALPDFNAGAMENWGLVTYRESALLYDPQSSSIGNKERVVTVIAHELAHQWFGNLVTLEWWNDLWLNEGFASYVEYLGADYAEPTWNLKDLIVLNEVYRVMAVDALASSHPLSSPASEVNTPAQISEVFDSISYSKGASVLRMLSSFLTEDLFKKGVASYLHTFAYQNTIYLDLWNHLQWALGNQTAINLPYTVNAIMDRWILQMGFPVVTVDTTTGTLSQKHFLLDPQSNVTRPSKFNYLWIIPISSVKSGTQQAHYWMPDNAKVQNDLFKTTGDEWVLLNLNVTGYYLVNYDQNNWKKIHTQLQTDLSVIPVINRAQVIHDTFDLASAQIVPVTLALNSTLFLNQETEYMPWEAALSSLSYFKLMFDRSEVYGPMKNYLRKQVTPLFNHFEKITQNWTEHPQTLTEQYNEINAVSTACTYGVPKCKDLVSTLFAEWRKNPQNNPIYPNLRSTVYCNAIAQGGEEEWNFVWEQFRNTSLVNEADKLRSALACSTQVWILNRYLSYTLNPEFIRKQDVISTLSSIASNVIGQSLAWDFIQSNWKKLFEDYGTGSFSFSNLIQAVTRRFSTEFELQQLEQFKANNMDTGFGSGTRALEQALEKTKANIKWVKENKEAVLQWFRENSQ

[3] = target: Arabian camel aminopeptidase N ectodomain fused with the Fc domain of human IgG (Arabian camel (Camelus dromedarius))
[4] = target: red fox aminopeptidase N ectodomain fused with the Fc domain of human IgG (red fox (Vulpes vulpes))
[5] = target: horse aminopeptidase N ectodomain fused with the Fc domain of human IgG (horse (Equus caballus))
[6] = target: giant panda aminopeptidase N ectodomain fused with the Fc domain of human IgG (giant panda (Ailuropoda melanoleuca))

B1: TGEV RBD (receptor-binding domain of the transmissible gastroenteritis coronavirus spike protein) (domain or fragment)
chain: TANLNNGFYPVSSSEVGLVNKSVVLLPSFYTHTIVNITIDLGMKRSGYGQPIASTLSNITLPMQDNNTDVYCIRSDQFSVYVHSTCKSSLWDNIFKRNCTDVLDATAVIKTGTCPFSFDKLNNYLTFNKFCLSLSPVGANCKFDVAARTRTNEQVVRSLYVIYEEGDNIVGVPSD
With B1 the Kd [1] was 333 nM, the Kd [2] was 30.8 nM and the Kd [3] was 6360 nM. The Kd [4] was 462 nM, the Kd [5] was 2350 nM and the Kd [6] was 765 nM.
